Experimental data: patent US20210130437A1 (ALPINE IMMUNE SCIENCES, published 2021)

Tests used:
[1] = target: T1, PD-1 stably expressed on Jurkat/IL-2 reporter cells (Jurkat/PD-1) (human, UniProt Q15116 21-288); experiment: culture supernatant on PD-1+ Jurkat cells, surface bound PD-L2 detected with anti-his-APC by flow cytometry
T1 construct: also called Jurkat/PD-1 cells; PD-1+ Jurkat cells

TIGIT [2] = target: T2, TIGIT (UniProt Q495A1 22-244); experiment: flow cytometry, cells expressing TIGIT
T2 construct: whole, on cells; cell-expressed counter structure
T2 sequence (looked up): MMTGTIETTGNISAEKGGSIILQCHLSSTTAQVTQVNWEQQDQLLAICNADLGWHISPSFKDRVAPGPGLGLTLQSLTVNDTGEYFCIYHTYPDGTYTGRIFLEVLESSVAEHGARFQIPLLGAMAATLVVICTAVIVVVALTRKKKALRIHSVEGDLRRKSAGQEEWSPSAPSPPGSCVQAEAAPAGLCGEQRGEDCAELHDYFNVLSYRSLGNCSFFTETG

CD28 = target: T3, CD28 (Homo sapiens (Human), UniProt P10747 19-220); experiment: flow cytometry, HEK293 cells transfected with CD28
T3 construct: Expressed on transfected HEK293 cells

CD96 = target: T4, CD96 (UniProt P40200 22-585, limits assumed); experiment: flow cytometry, transfected cells
T4 construct: whole, on cells; on transfected cells
T4 sequence (looked up): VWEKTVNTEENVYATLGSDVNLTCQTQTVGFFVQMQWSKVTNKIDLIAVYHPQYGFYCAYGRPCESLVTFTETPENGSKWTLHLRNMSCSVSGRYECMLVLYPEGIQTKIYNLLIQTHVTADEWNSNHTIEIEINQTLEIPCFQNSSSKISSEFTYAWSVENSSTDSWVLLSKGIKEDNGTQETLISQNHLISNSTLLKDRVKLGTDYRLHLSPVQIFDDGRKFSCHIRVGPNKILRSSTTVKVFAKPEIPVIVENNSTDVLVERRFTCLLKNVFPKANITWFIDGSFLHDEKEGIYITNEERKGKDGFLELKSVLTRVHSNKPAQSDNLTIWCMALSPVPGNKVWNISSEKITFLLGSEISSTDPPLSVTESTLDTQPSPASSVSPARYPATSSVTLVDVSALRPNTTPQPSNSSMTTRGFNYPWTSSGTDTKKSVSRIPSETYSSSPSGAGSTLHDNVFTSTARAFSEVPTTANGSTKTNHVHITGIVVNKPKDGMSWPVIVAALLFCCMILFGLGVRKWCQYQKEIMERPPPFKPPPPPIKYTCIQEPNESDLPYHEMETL

TIGIT [3] = target: T5, TIGIT (Homo sapiens (Human), UniProt Q495A1 22-244); experiment: flow cytometry, transfected cells
T5 construct: on transfected cells
T5 sequence: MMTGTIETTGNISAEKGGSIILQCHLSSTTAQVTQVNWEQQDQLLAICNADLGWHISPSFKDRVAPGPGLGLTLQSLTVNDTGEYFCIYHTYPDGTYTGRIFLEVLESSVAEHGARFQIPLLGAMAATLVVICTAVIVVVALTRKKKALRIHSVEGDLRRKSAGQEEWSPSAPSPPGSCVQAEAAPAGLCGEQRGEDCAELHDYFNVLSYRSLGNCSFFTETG

CD226 = target: T6, CD226 (Homo sapiens (Human), UniProt Q15762 19-336); experiment: flow cytometry, transfected cells
T6 construct: on transfected cells
T6 sequence: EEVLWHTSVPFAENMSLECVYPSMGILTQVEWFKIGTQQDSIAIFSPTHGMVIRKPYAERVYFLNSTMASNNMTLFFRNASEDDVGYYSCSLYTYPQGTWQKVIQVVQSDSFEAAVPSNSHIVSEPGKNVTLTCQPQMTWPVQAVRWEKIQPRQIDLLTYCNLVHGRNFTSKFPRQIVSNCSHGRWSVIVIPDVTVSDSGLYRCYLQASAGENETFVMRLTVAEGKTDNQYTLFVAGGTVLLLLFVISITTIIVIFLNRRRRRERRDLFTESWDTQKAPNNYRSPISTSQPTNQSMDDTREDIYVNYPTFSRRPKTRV

T1 sequence (Q15116 21-288): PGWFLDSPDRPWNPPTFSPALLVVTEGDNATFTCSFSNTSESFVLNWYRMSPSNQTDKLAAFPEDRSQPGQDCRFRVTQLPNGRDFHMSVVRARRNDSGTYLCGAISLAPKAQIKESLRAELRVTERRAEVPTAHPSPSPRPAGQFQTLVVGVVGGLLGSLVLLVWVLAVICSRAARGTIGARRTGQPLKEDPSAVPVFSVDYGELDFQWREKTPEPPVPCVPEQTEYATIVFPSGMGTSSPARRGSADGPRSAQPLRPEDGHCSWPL

| Binder | binding result [1] | MFI at 25 nM (TIGIT [2]) | MFI at 66.6 nM (CD28) | MFI parental ratio (CD96) | MFI parental ratio (TIGIT [3]) | MFI parental ratio (CD226) |
| --- | --- | --- | --- | --- | --- | --- |
| PD-L2 SIP with variant PD-L2 IgV H15Q,V31M,S67L,Q82R,V89D (SEQ ID NO:316), Avitag and His tag (ligand, also called variant PD-L2 SIP) LFTVTVPKELYIIEQGSNVTLECNFDTGSHMNLGAITASLQKVENDTSPHRERATLLEEQLPLGKALFHIPQVQVRDEGQYRCIIIYGDAWDYKYLTLKVKAGLNDIFEAQKIEWHEHHHHHH | binds | – | – | – | – | – |
| variant CD155 IgV-Fc V9L, V11M, P18S, N35S, S54G, Q62K, L79P, L104M, T107M, V115M (Fc fusion, not shown: a dimerising Fc or GST) WPPPGTGDLVMQAPTQVSGFLGDSVTLPCYLQVPSMEVTHVSQLTWARHGESGGMAVFHQTKGPSYSESKRLEFVAARPGAELRNASLRMFGLRVEDEGNYTCMFVMFPQGSRSMDIWLRVL | – | 3000 | – | – | – | – |
| WT CD80 ECD Fc (Fc fusion, not shown: a dimerising Fc or GST) VIHVTKEVKEVATLSCGHNVSVEELAQTRIYWQKEKKMVLTMMSGDMNIWPEYKNRTIFDITNNLSIVILALRPSDEGTYECVVLKYEKDAFKREHLAEVTLSVKADFPTPSISDFEIPTSNIRRIICSTSGGFPEPHLSWLENGEELNAINTTVSQDPETELYAVSSKLDFNMTTNHSFMCLIKYGHLRVNQTFNWNTTKQEHFPDN | – | – | 3070 | – | – | – |
| Wildtype CD155 IgV Fc (Fc fusion, not shown: a dimerising Fc or GST) WPPPGTGDVVVQAPTQVPGFLGDSVTLPCYLQVPNMEVTHVSQLTWARHGESGSMAVFHQTQGPSYSESKRLEFVAARLGAELRNASLRMFGLRVEDEGNYTCLFVTFPQGSRSVDIWLRVL | – | – | – | 1 ratio | 1 ratio | 1 ratio |
| variant CD155 IgV-Fc A81V, L83P (Fc fusion, not shown: a dimerising Fc or GST) WPPPGTGDVVVQAPTQVPGFLGDSVTLPCYLQVPNMEVTHVSQLTWARHGESGSMAVFHQTQGPSYSESKRLEFVAARLGVEPRNASLRMFGLRVEDEGNYTCLFVTFPQGSRSVDIWLRVL | – | – | – | 0.8 ratio | 1.1 ratio | 1.1 ratio |
| variant CD155 IgV-Fc P18L, L79V, F91S (Fc fusion, not shown: a dimerising Fc or GST) WPPPGTGDVVVQAPTQVLGFLGDSVTLPCYLQVPNMEVTHVSQLTWARHGESGSMAVFHQTQGPSYSESKRLEFVAARVGAELRNASLRMSGLRVEDEGNYTCLFVTFPQGSRSVDIWLRVL | – | – | – | 1.1 ratio | 1.5 ratio | 1.4 ratio |
| variant CD155 IgV-Fc P18T, F91S, R94H (Fc fusion, not shown: a dimerising Fc or GST) WPPPGTGDVVVQAPTQVTGFLGDSVTLPCYLQVPNMEVTHVSQLTWARHGESGSMAVFHQTQGPSYSESKRLEFVAARLGAELRNASLRMSGLHVEDEGNYTCLFVTFPQGSRSVDIWLRVL | – | – | – | 0.8 ratio | 1.1 ratio | 1 ratio |
